The source of these data is the PETadex activity labels (doi:10.1002/cssc.202101062).

Substrate in data set [1]: PET
Briefly: Proxy for plastic degradation [Weight/mass loss]. The settings on record: pH 8.

Substrate in data set [2]: gfPET
Briefly: Proxy for plastic degradation [Weight/mass loss]. The settings on record: pH 8.

Substrate in data set [3]: gfPET
Briefly: Proxy for plastic degradation [Released monomer concentration (HPLC/LC-MS) (TPA+MHET+BHET)].

Substrate in data set [4]: PET
Put plainly: Proxy for plastic degradation [Released monomer concentration (HPLC/LC-MS) (TPA+MHET)]. The settings on record: pH 8.

B1: unnamed (protein)
chain: MANPYERGPNPTDALLEARSGPFSVSEENVSRLSASGFGGGTIYYPRENNTYGAVAISPGYTGTEASIAWLGERIASHGFVVITIDTITTLDQPDSRAEQLNAALNHMINRASSTVRSRIDSSRLAVMGHSMGGGGSLRLASQRPDLKAAIPLTPWHLNKNWSSVRVPTLIIGADLDTIAPVLTHARPFYNSLPTSISKAYLELDGATHFAPNIPNKIIGKYSVAWLKRFVDNDTRYTQFLCPGPRDGLFGEVEEYRSTCPF
With B1, the “Proxy for plastic degradation” value with PET [1] (45 °C) came to 0.5%; in the data set with PET [1] (50 °C) it was 1%; in the data set with PET [1] (55 °C), 1%; with PET [1] (60 °C), 1%; with PET [1] (65 °C), 15%; with PET [1] (70 °C), 18%. Besides, the “Proxy for plastic degradation” value with PET [1] (75 °C) was 15%.

B2: unnamed (protein)
chain: MANPYERGPNPTDALLEARSGPFSVSEENVSRLSASGFGGGTIYYPRENNTYGAVAISPGYTGTEASIAWLGERIASHGFVVITIDTITTLDQPDSRAEQLNAALNHMINRASSTVRSRIDSSRLAVMGHSMGGGGSLRLASQRPDLKAAIPLTPWHLNKNWSSVTVPTLIIGADLDTIAPVATHAKPFYNSLPSSISKAYLELDGATHFAPNIPNKIIGKYSVAWLKRFVDNDTRYTQFLCPGPRDGLFGEVEEYRSTCPF
As to B2, the “Proxy for plastic degradation” value with gfPET [2] (65 °C) worked out at 7%; with gfPET [2] (70 °C), 8%; with gfPET [2] (75 °C), 2%; with gfPET [3] (40 °C), 0 mmol/h; with gfPET [3] (50 °C), 0.05 mmol/h; in the data set with gfPET [3] (55 °C) it was 0.08 mmol/h. Moreover, the “Proxy for plastic degradation” value in the data set with gfPET [3] (60 °C) was found to be 0.18 mmol/h; with gfPET [3] (65 °C) it was 0.2 mmol/h; in the data set with gfPET [3] (70 °C) it was 0.2 mmol/h; with gfPET [3] (75 °C), 0.08 mmol/h; with gfPET [3] (80 °C), 0.05 mmol/h; with gfPET [3] (85 °C) it was 0 mmol/h.

B3: unnamed (protein)
chain: MENPYERGPDPTESSIEAVRGPFAVAQTTVSRLQADGFGGGTIYYPTDTSQGTFGAVAISPGFTAGQESIAWLGPRIASQGFVVITIDTITRLDQPDSRGRQLQAALDHLRTNSVVRNRIDPNRMAVMGHSMGGGGALSAAANNTSLEAAIPLQGWHTRKNWSSVRTPTLVVGAQLDTIAPVSSHSEAFYNSLPSDLDKAYMELRGASHFVSNTPDTTTAKYSIAWLKRFVDNDLRYEQFLCPAPDDFAISEYRATCPF
Consider B3, for which the “Proxy for plastic degradation” value was found to be 15% with PET [1] (65 °C); 20% in the data set with PET [1] (70 °C); 18% with PET [1] (75 °C); 18% in the data set with gfPET [2] (65 °C); 18% with gfPET [2] (70 °C); 18% with gfPET [2] (75 °C). For the same protein, the “Proxy for plastic degradation” value with gfPET [3] (40 °C) turned out to be 0 mmol/h; in the data set with gfPET [3] (50 °C), 0.08 mmol/h; in the data set with gfPET [3] (55 °C), 0.11 mmol/h; in the data set with gfPET [3] (60 °C), 0.18 mmol/h; in the data set with gfPET [3] (65 °C) it was 0.25 mmol/h; in the data set with gfPET [3] (70 °C), 0.3 mmol/h. For the same protein, the results for the “Proxy for plastic degradation” value in the data set with gfPET [3] (75 °C), with gfPET [3] (80 °C) and with gfPET [3] (85 °C) were 0.38 mmol/h, 0.41 mmol/h and 0.38 mmol/h, respectively.

B4: unnamed (protein)
chain: MANPYERGPDPTESSIEAVRGPFAVAQTTVSRLQADGFGGGTIYYPTDTSQGTFGAVAISPGFTAGQESIAWLGPRIASQGFVVITIDTITRLDQPDSRGRQLQAALDHLRTNSVVRNRIDPNRMAVMGHSMGGGGALSAAANNTSLEAAIPLQGWHTRKNWSSVRTPTLVVGAQLDTIAPVSSHSEAFYNSLPSDLDKAYMELRGASHLVSNTPDTTTAKYSIAWLKRFVDDDLRYEQFLCPAPDDFAISEYRSTCPF
Regarding B4, the “Proxy for plastic degradation” value in the data set with PET [1] (65 °C, part of the chain shown) was found to be 75%; with PET [1] (70 °C, part of the chain shown), 95%; with PET [1] (75 °C, part of the chain shown), 60%; in the data set with gfPET [2] (65 °C, part of the chain shown) it was 77%; with gfPET [2] (70 °C, part of the chain shown) it was 90%; in the data set with gfPET [2] (75 °C, part of the chain shown), 58%. For the same protein, the “Proxy for plastic degradation” value with PET [4] (0 h, part of the chain shown) is 0 mM; with PET [4] (4 h, part of the chain shown), 15 mM; with PET [4] (8 h, part of the chain shown) it was 26 mM; in the data set with PET [4] (16 h, part of the chain shown), 50 mM; with gfPET [3] (40 °C, part of the chain shown), 0 mmol/h; in the data set with gfPET [3] (50 °C, part of the chain shown), 0.45 mmol/h. Moreover, the “Proxy for plastic degradation” value in the data set with gfPET [3] (55 °C, part of the chain shown) amounted to 0.8 mmol/h; in the data set with gfPET [3] (60 °C, part of the chain shown), 0.9 mmol/h; in the data set with gfPET [3] (65 °C, part of the chain shown), 1.1 mmol/h; in the data set with gfPET [3] (70 °C, part of the chain shown), 1.4 mmol/h; with gfPET [3] (75 °C, part of the chain shown), 1.7 mmol/h; in the data set with gfPET [3] (80 °C, part of the chain shown), 1.65 mmol/h. In the data set with gfPET [3] (85 °C, part of the chain shown), the “Proxy for plastic degradation” value came out at 0.9 mmol/h.

B5: unnamed (protein)
chain: MDGVLWRVRTAALMAALLALAAWALVWASPSVEAQSNPYQRGPNPTRSALTADGPFSVATYTVSRLSVSGFGGGVIYYPTGTSLTFGGIAMSPGYTADASSLAWLGRRLASHGFVVLVINTNSRFDYPDSRASQLSAALNYLRTSSPSAVRARLDANRLAVAGHSMGGGGTLRIAEQNPSLKAAVPLTPWHTDKTFNTSVPVLIVGAEADTVAPVSQHAIPFYQNLPSTTPKVYVELDNASHFAPNSNNAAISVYTISWMKLWVDNDTRYRQFLCNVNDPALSDFRTNNRHCQ
In the case of B5, the “Proxy for plastic degradation” value is 0 mM with PET [4] (0 h), 3 mM in the data set with PET [4] (4 h), 7 mM in the data set with PET [4] (8 h) and 29 mM with PET [4] (16 h).
